The values below come from the domain aggregation screens of Martell et al. (2025).

Bounds are passed on as bounds.

The nature of this data set: soluble fraction after stress (log2 fold change); higher = more stays soluble; pooled small domains, quantitative proteomics. Conditions: stress: pH 4. In a few lines:
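Custom libraries of small protein domains were pooled and measured with high-throughput quantitative proteomics after pH 4 stress. The read-out is the fold change in the amount of each domain that stays soluble after the acid stress, taken as a measure of aggregation propensity. Fold changes are on a log2 scale, and higher values mean more of the domain stayed soluble.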
In the case of “HMTSGPAWPALSAQQRSVLAPLQRDWHTIDAARKAKWLEVAARFPSMPAEERQRVQERMAEWA”, the “soluble fraction (log2)” value is -0.0144.

With “HMTSKIIIGDSYSKINKLLGEPENMKKRKFLDNEYLMVLYSINKKNYRLYFKDNILFELEDI”, the “soluble fraction (log2)” value was -0.582.

“HMTSLQDLLEELRVIRETLTGSQVLSDMQLFSQLRNLGDIKAALTRMQDNPAAARMVGEVDKLLETMFAS”: the “soluble fraction (log2)” value is -1.56.

Take “HMTSLSYINDLVTGATAQGLYRIVVPNQFMDDNMANVLRRTYGYQVQSRTSLMGTFDDYIISWAPPM”: the “soluble fraction (log2)” value was -1.59.

With “HMTSMTHLGRHPDSEISLDDISVSRRHAEIERQGHEYVLRDSGSLNGTYVNQQRVDSVVLQQGDEIL”, the “soluble fraction (log2)” value is -0.277.

For “HMTSPLQIHPNPATKHIELGLESPEVVLIKDINGKTVYQELVAPNQYIDIEHLKNGIYFIESKNKFGKLIK”, the “soluble fraction (log2)” value came out at 0.29.

On to “HMTSPNPLIRSTTPGLETNKKGGIIVDENEMSTRENVFAGGDAVTGAATVILAMGAGKKAAAAIDAKLQN”, for which the “soluble fraction (log2)” value was determined as 0.22.

For the sequence “HMTSPQGIERFLASGVIEGVGKAMAARIVAVFGGQTLEIIEKQPHRLREVRGIGVKTAEKIHASYQEKA”, the “soluble fraction (log2)” value is -0.203.

As to “HMTSPVEDLLDKAIQLYREENFEEAIAKWEEVLALDPSKLEAKFNIEIAQDRIKEKQIQEDLKSS”, the “soluble fraction (log2)” value is -0.935.

Consider “HMTSQVTVHVVGAVEKPGVVTLDAPSRVQDALEAAGGALPEAELSGVNLARELFDGEQIVVPAQGEDV”, for which the “soluble fraction (log2)” value is 0.0598.

For the sequence “HMTSSVIIPKLIGKTEEEAKVALAGLNVQVLYETHGDQANGIVIKQSFEEGTKVIKGVSIVITVNKVS”, the “soluble fraction (log2)” value is -0.256.

In the case of “HMTSTEQEILIEHMVDRLPALRKKYGISQTELGEKIGLSRQTISAIERKTTPLTWTTMLAILMFFT”, the “soluble fraction (log2)” value was -0.425.

On to “HMTSTSVKYVNSSSGLNVRKGPSTSYDKVTTLVNGTKVTVISTNNGWSKITSGSITGYVSSQYLSSSS”, for which the “soluble fraction (log2)” value was -0.284.

Take “HMTSVAYVIDRINKIQNVYSELEALGLKDEFEKILSNIEDLSKKDIREIKTLLKTKGVIKNLDDLNVKL”: the “soluble fraction (log2)” value was -1.24.

As to “HMTSVQDLLRNGDRVGYQNGSTVKYWLEEMGFHKKDLLGYVTVEEYAEALQRGSGNGGVSAIVD”, the “soluble fraction (log2)” value was -1.7.

On to “HMTTARERVYKTLQQWIVNGTLLPEERLNDVELARYFSVSRTPVREALQMLAEQKLVKMVPSSGTFVA”, for which the “soluble fraction (log2)” value is -0.0644.

As to “HMTTELDTTAITPIIQKVLKANPDVVAKYKAGQQQVIGFLMGQVMRELSTKPNPKELQSLIVAQLQQA”, the “soluble fraction (log2)” value was -0.0703.

Regarding “HMTTGEIIQRERTRLGLSQEKLAEQVGVSRQAVSKWELGDAVPDTDKLVPLARTLGISVDTLLD”, the “soluble fraction (log2)” value came to 0.0499.

As for “HMTTGGAEELGRTERKIVEQVGRGLSNREIAQVLGLSEGTVRNYLSTILGKLGLRDRTQLAIWSVQTGFAA”, the “soluble fraction (log2)” value was -0.371.

Consider “HMTTHERHEIIELLRQVGDPMRPKEISEALGKPSGAIRFLLSKLTEEGAIKKTGYGQYTYIP”, for which the “soluble fraction (log2)” value is -0.0635.

For “HMTTLTPIGKMKGEIDGDFEAFYLAVDKDGQVYLNRDPDYSENRYEKSRGWELVTREQLAVYEKELHFIP”, the “soluble fraction (log2)” value is -0.25.

For “HMTTMYKSDVKGINYDVKAKSWFLRITFNGNQIPIGHFKTEEDAINVKQQLIPYIESKDYTSILAVKAKYS”, the “soluble fraction (log2)” value was not below 0.43.

On to “HMTTPDIIVPDVKGMTVAEAQKALEEKGFKVKLEEMTQEGAVPGDVIRIDPVAGTKRKEGAKITLLIARG”, for which the “soluble fraction (log2)” value was -0.0525.

As to “HMTTQTGTVKWFNEGKGFGFIAPDDGGKDLFAHFKEIQGTGFKTLAENQRVEFEVTQGQKGPQASKI”, the “soluble fraction (log2)” value was -0.469.

Turning to “HMTTQTTKYVNTTAGLNVRTGPSTSYAKIVTLSYGQSVNVLSTSNGWSKINYNGSTGYVSSQYLQSTKPS”, the “soluble fraction (log2)” value amounted to 0.0265.

For the sequence “HMTTSNPMNVTSAEAAFDNGTDRLNAFISGRTTSEERSTYFPLFVRETKEDFLRAVGRFNEYIANHG”, the “soluble fraction (log2)” value was 0.0839.

In the case of “HMTTTAGTAVVQTGNSGKLNLREQAYSNAGILGRYSNGTIVTVLQKGSAWSYVEVQGQKGYMMSKFLRFT”, the “soluble fraction (log2)” value was -0.386.

As for “HMTTTFGWENLVGEKGIAATDLHPSGWVTVKDQRVFVVSEGTFIEEGKEVEIMNVDGNRIVVREFKN”, the “soluble fraction (log2)” value was -0.46.

For the sequence “HMTTTPTSQMVTELRSRGWTLRALAQRLGVGHASINRWANGVTPDRDLVAALRALVASGEVP”, the “soluble fraction (log2)” value is -0.00752.

For the sequence “HMTTTYEINDEMLKPLILEIFNKSKQRFGSTKIAPVLKREGYTASIAKVKTLMNELGIKPVNA”, the “soluble fraction (log2)” value was 0.206.

On to “HMTTTYTVPKVTGMTLEEAREDPDVVGRFTIVEGEKVTSDTVPVGQIVSQEPAAHRQVGEDGLTITVNIS”, for which the “soluble fraction (log2)” value is -0.2.

As for “HMTTVKDRVYEILKREIVLGKLKPGEPINIAVLSTKLNISSAPLREALNMLSRDGLVTLNPRKHAAVSE”, the “soluble fraction (log2)” value is -0.0431.

Take “HMTTVRLNATVPPELALQRLDRVARELFPEYSRNRLQQWIRSGELLVNGSPSGVRDKVPLGAELAVAANLE”: the “soluble fraction (log2)” value was -0.343.

As to “HMTTVSINTTGIITASTIRASSALYPPLYTTVQRDAGTFSAGAIIFNSTTSKLEFYDGTTWQSLPG”, the “soluble fraction (log2)” value was determined as 0.285.

Consider “HMTTVTVGSKVRVKAGATFSDGAKPFAEVYNTVYDVQLLSHNGKEARIGIGDQWTGWIYISDLYLANQPAP”, for which the “soluble fraction (log2)” value is -0.101.

Turning to “HMTVEMYIGKTANVLETVTENNGRIAIFGEEWQAKSLNGETIEKGAQAKIVKNDSIIMYVVPI”, the “soluble fraction (log2)” value was -0.367.

As for “HMTVGENTYELIKKDIIFGVLPPLKKLKLQELKKIYNASVSTLREILSRLTGDGFVFSEEQKGFYVSPV”, the “soluble fraction (log2)” value is -0.33.

“HMTVKEVGYDTFLTMLDKKEIKQVQVEDNQIIFSDNADPVNYYKTGVFNDPDLVNRLQDAGVEFG”: the “soluble fraction (log2)” value was -0.37.

As for “HMTVKEYNRAVDEYSDAVWRFIRGNLRDEDRANDIVQDSFEKLWMHVTEIDYSVAKSWLFSTAYNNMIDI”, the “soluble fraction (log2)” value was -0.899.

“HMTVKKLTINEDNSGRRIDNYLLSIFNSLPRSKIYNIIRKGEVRVNSSRIKPNYRLEQGDLVRIPPNLEFT”: the “soluble fraction (log2)” value worked out at 0.0853.

For “HMTVKRNLVQEILRLKFRHPENFMPNRAFYQEVGINQMRWWDIFYGRKNINQEEYIALSKYF”, the “soluble fraction (log2)” value was -0.352.

Regarding “HMTVLPTEQDAKALVGLGEEEAAKIVEGNGWTYRIGSRDGEQFMLTEDFVTSRLTLGIEKAIVMTATI”, the “soluble fraction (log2)” value was -2.11.

“HMTVLSKEEFVAIEQRLLQLLGTAPVDNKILLQQLSGIKKEKAWKVLSFLQAENKIGMDATGRVYL”: the “soluble fraction (log2)” value was -0.697.

For the sequence “HMTVPDVKGMGARDAVFLLETLGFKVRINGIGQVYEQSIDPGKSYSKGEFISLRL”, the “soluble fraction (log2)” value was -0.81.

Turning to “HMTVPNVVGQRILAAQDILKNLGLKVLVDTNLPNSQWGLRNVKSTNPGAGAVVRVGDTVTLIAR”, the “soluble fraction (log2)” value is 0.124.

As to “HMTVPTEVALELMHATALEDNEQRILYIASFKEKHREHLHATIEVDGQEVTLARYADLVATGAYL”, the “soluble fraction (log2)” value is -2.15.

Consider “HMTVSADIIQKIIKTSTTDENIITIDSISNSISKLALSKITAEDIIEILEASSLVLRNSNGSWTVL”, for which the “soluble fraction (log2)” value was -0.716.

With “HMTVSKLKVINYTIRNGDSLWTISRKFNVTVDKVKEWNGLSDRTLLQPGQKLTLYVDPTIQISH”, the “soluble fraction (log2)” value was -0.406.

For the sequence “HMTVSLLQTRQRLQALADLGHYKGDLGAAWGPDAIEALKKAQATLGVTVDGKWGPQTEDAIQVALKVQ”, the “soluble fraction (log2)” value was -0.0459.

As to “HMTVTISPGYEGRLLRSYLKNTLSLSTSALARLKTREDGITVNGVRVTVRYVLHAGDLLQLAVD”, the “soluble fraction (log2)” value amounted to 0.22.

Consider “HMTVVHRQVHLQPDQGAFRAALYSHKAVLSEQTDDQGAINLEIRLPESDFLRLLNSSGLKLQDLVP”, for which the “soluble fraction (log2)” value was -0.512.

In the case of “HMTVVSVDDQASASSEAIRTKVAGDSAARMSVDAGGKITWGAGSASGDVTLYRSAANTLKTDDTLVAT”, the “soluble fraction (log2)” value came to 0.109.

In the case of “HMTYADTRDLLIRRGMELLTEQGIAATSIERVLQSTGIPKGSFYHYFATKHDFTLAVMDAYHHY”, the “soluble fraction (log2)” value was -0.324.

For “HMTYAQQIGARIAFLRRLKGLTLAELAERVNKHKSTISKYESGQIIIDIESLKEVADALGVDVAQIVE”, the “soluble fraction (log2)” value was determined as 0.187.

Regarding “HMTYFDIAPELLTVYKEINDIPRDINQIVRKTGLSINEVSYKTMILQLEDKIVELPGQRFIRNS”, the “soluble fraction (log2)” value is -0.815.

As to “HMTYKHLTIDEMKRFLSTREDSQSALVQFARVENVVGNRKGKYAVIKKWFLKNYKEEYNAFLS”, the “soluble fraction (log2)” value was found to be 0.0391.

“HMTYPGSIALVNPKHEAFVQHYVATSGSRGQAAKLAGVTTTTARNLLQDVEATARIRYLNAQQFQ”: the “soluble fraction (log2)” value was determined as 0.22.

Consider “HMTYTGTVTGVDEGGLRVRSSTSTENTSNVITKVYTGDTFDVLDTVYNGSAKWYKIGFTYNGTYTYGYVSA”, for which the “soluble fraction (log2)” value is -0.518.

Regarding “HMTYVSVSNYIGTNVDKAKGELESQGLVVLLEEQKTEDKSQDGMVLKQTIEGGTKVSSGSRITLIYGRYT”, the “soluble fraction (log2)” value is -0.117.

Take “HMVADEGELLAIAREVVAANPKVFEDWKAGKQSAAQWFVGQIMKRTRGRANPQLALKLVTQALEEHAR”: the “soluble fraction (log2)” value is -0.21.

“HMVAEKSKIEMAIDSINKLAKELADSGVAKKTISDIIKSVSGSANYNKITDFEVATDVYKELVALKNKEDT”: the “soluble fraction (log2)” value is -0.224.

In the case of “HMVAESGLPPAFRSTWRHIMQTRGAQLDVLAMRTGTDAASLQKQLHAMELGGWVRRMPGGWYVPLK”, the “soluble fraction (log2)” value is -0.1.

“HMVAFYATPKERGIYDDAETYREGDIVSIADGSRWIYVNPTATAGNDPADGSVYWERMSGAATGP”: the “soluble fraction (log2)” value was -0.127.

For “HMVAGHLQEKKGYFYMVLTYRDHEGKRKSKWLPTGLTIKGNKKRAQDLLQDARKNFVPDIPT”, the “soluble fraction (log2)” value was not below 0.43.

For the sequence “HMVAGHLQEKNGYFYIVLNYTNHEGKRKSKWITTGLTVKGNKKRAQDLLQEARKTFVPDIPT”, the “soluble fraction (log2)” value was 0.22.

Take “HMVAPKDIVMPSFVGKKYTDVVNTPNSSYTFEFKKDEKNSSDYAVGFIMDQKPKAGETVKSNATVTLIVSK”: the “soluble fraction (log2)” value came to 0.0982.

As for “HMVAPNSEATTKLIIEKTKYANESPAILMGFKATATMLMAKHVVLPTSKYAYFNEGRALLEKAIK”, the “soluble fraction (log2)” value is 0.278.

Regarding “HMVAREAYTTQNLTDVFSISRQAVEKRAKREGWQSVPRKGRGGGKLWVVSSMPAETRDLLASLLLRK”, the “soluble fraction (log2)” value was not below 0.43.

Regarding “HMVDALYGQGARVMRDFSEGSGIVKLDNGETWTGRLSPAASGASLYVGDRVIVTRIDGAIAEVTPP”, the “soluble fraction (log2)” value was -0.446.
